We go through 37 sequences from the supplement of paper PMC9732359.

± gives the uncertainty stated by the source.

The data set is described as follows: protein stability index of a GFP-peptide fusion (yeast GPS) (PSI 1-4); higher = more stable; sorted into four equal gates, so the index is relative within each strain. The gist of the method:
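Plasmids in a pooled yeast library fused tiled 17-residue yeast protein peptides downstream of GFP and also expressed Cherry. Mid-log cultures grown without leucine were sorted into four equal gates by GFP/Cherry fluorescence ratio. Each gate's plasmids were PCR-amplified and Illumina-sequenced, and reads were matched to strains by barcodes. The protein stability index is derived by multiplying each gate's read frequency by its gate number and summing the results.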

In the case of IKEKVQFNATINPESRE [ITC1], the protein stability index by setting is: (doa10∆) 1.67 ± 0.046; (pdr5∆) 1.6 ± 0.044; (san1∆) 1.97 ± 0.073; (ubr1∆) 2.07 ± 0.037.

Consider EETSHLLTVTPGPRLLY [RPN10], for which the protein stability index by setting is: (doa10∆) 2.61 ± 0.06; (pdr5∆) 2.69 ± 0.074; (san1∆) 2.54 ± 0.091; (ubr1∆) 3.06 ± 0.057.

Regarding MGAINNNIPSLTSFAEE [SNF6], the protein stability index (doa10∆) amounted to 3.2 ± 0.13, the protein stability index (pdr5∆) came to 3.43 ± 0.1, the protein stability index (san1∆) stood at 3.37 ± 0.15 and the protein stability index (ubr1∆) is 3.35 ± 0.1.

In the case of GAVSLNPSITRLEEESS [RRP4], the protein stability index came to 3 ± 0.2 (doa10∆), 3.03 ± 0.14 (pdr5∆), 3.07 ± 0.1 (san1∆) and 2.35 ± 0.08 (ubr1∆).

With DSTNLSDDAAQFMKRFP [ECM29], the protein stability index was 2.65 ± 0.11 (doa10∆), 2.79 ± 0.073 (pdr5∆), 1.45 ± 0.092 (san1∆) and 3.06 ± 0.1 (ubr1∆).

Consider KKTRIIPRHLQLAIRND [HTA1], for which the protein stability index is, setting by setting: (doa10∆) 2.47 ± 0.088; (pdr5∆) 2.69 ± 0.078; (san1∆) 3.03 ± 0.11; (ubr1∆) 2.05 ± 0.081.

Consider LEFYKDKFFNEVNKSEL [SIR3], for which the protein stability index is, setting by setting: (doa10∆) 3.31 ± 0.066; (pdr5∆) 3.27 ± 0.058; (san1∆) 3.25 ± 0.043; (ubr1∆) 3.43 ± 0.064.

Take EKKQKTESQDVETRVQN [DPB4]: the protein stability index (doa10∆) came out at 3.52 ± 0.11, the protein stability index (pdr5∆) came out at 3.38 ± 0.072, the protein stability index (san1∆) is 3.35 ± 0.048 and the protein stability index (ubr1∆) worked out at 3.3 ± 0.056.

Take IAPRPLDLLRPVVRAPT [RPL13A]: the protein stability index was 2.55 ± 0.08 (doa10∆), 3.15 ± 0.089 (pdr5∆), 2.1 ± 0.12 (san1∆) and 2.7 ± 0.051 (ubr1∆).

As to QEYLNPVIDTQIANEFN [YDL116W/NUP84], the protein stability index was 2.85 ± 0.053 (doa10∆), 2.96 ± 0.058 (pdr5∆), 2.71 ± 0.046 (san1∆) and 2.88 ± 0.052 (ubr1∆).

As for KIWSVKDGSNPRTLIGH [RPN14], the protein stability index reads like this: (doa10∆) 3.12 ± 0.11; (pdr5∆) 3.01 ± 0.12; (san1∆) 2.95 ± 0.14; (ubr1∆) 2.96 ± 0.12.

In the case of GNIDTKNNILGSNVLKS [RRP43], the protein stability index by setting is: (doa10∆) 2.86 ± 0.039; (pdr5∆) 2.97 ± 0.044; (san1∆) 2.92 ± 0.032; (ubr1∆) 3.041 ± 0.027.

With RKKRTRRLKRKRRKVRA [RPL41A], the protein stability index runs as follows: (doa10∆) 3.14 ± 0.16; (pdr5∆) 3.21 ± 0.13; (san1∆) 3.15 ± 0.12; (ubr1∆) 3.17 ± 0.086.

With EVSGENVVEADLKRFVD [QCR2], the protein stability index runs as follows: (doa10∆) 3.31 ± 0.19; (pdr5∆) 3.25 ± 0.13; (san1∆) 3.36 ± 0.058; (ubr1∆) 3.66 ± 0.067.

On to GGDWERRNRYKTYYGIH [RPN7], for which the protein stability index by setting is: (doa10∆) 1.24 ± 0.049; (pdr5∆) 1.4 ± 0.074; (san1∆) 1.29 ± 0.13; (ubr1∆) 1.18 ± 0.044.

For the sequence QANQVKRHSYAQSSHIR [RPS1A], the protein stability index worked out at 2.528 ± 0.023 (doa10∆), 2.622 ± 0.021 (pdr5∆), 2.564 ± 0.025 (san1∆) and 2.471 ± 0.019 (ubr1∆).

For the sequence VYGEGTSRVTGILLLDS [YJL039C/NUP192], the protein stability index stood at 3.19 ± 0.19 (doa10∆), 3.31 ± 0.091 (pdr5∆) and 3.44 ± 0.091 (ubr1∆).

In the case of KPKNTKENLSKSSWRQE [SIR4], the protein stability index stood at 1.35 ± 0.076 (doa10∆), 1.21 ± 0.049 (pdr5∆), 1.21 ± 0.1 (san1∆) and 1.5 ± 0.049 (ubr1∆).

As for LVSSASQQLLEILVTEL [RPN2], the protein stability index is, setting by setting: (doa10∆) 1.93 ± 0.059; (pdr5∆) 2.27 ± 0.058; (san1∆) 2.16 ± 0.092; (ubr1∆) 1.8 ± 0.051.

Turning to IDDANVTRKQEDARRNP [RPC37], the protein stability index worked out at 1.45 ± 0.15 (doa10∆), 1.8 ± 0.081 (pdr5∆), 2.06 ± 0.13 (san1∆) and 2.01 ± 0.1 (ubr1∆).

As to TNWDDHAIIIFGYPETI [YMR153W/NUP53], the protein stability index runs as follows: (doa10∆) 2.45 ± 0.062; (pdr5∆) 2.63 ± 0.048; (san1∆) 2.3 ± 0.077; (ubr1∆) 2.71 ± 0.038.

On to GETRMKMLNEFVKKTSE [SMC2], for which the protein stability index is, setting by setting: (doa10∆) 3.28 ± 0.1; (pdr5∆) 3 ± 0.092; (san1∆) 2.91 ± 0.068; (ubr1∆) 3.26 ± 0.082.

For the sequence KYPIFTGESWVKLTYNS [YDL088C/ASM4], the protein stability index reads like this: (doa10∆) 1.82 ± 0.049; (pdr5∆) 2.07 ± 0.068; (san1∆) 2.07 ± 0.1; (ubr1∆) 2.34 ± 0.058.

As to GINKKKLLAISKFNNAD [RPC31], the protein stability index reads like this: (pdr5∆) 1.93 ± 0.18; (san1∆) 2.97 ± 0.23.

For IAEVGNKRWKVDIGGKQ [RRP4], the protein stability index reads like this: (doa10∆) 3.62 ± 0.19; (pdr5∆) 3.32 ± 0.14; (san1∆) 3.22 ± 0.11; (ubr1∆) 3.36 ± 0.061.

In the case of KLISAFDDLEVEELPTF [RRP42], the protein stability index reads like this: (doa10∆) 2.57 ± 0.06; (pdr5∆) 2.84 ± 0.05; (san1∆) 2.5 ± 0.066; (ubr1∆) 2.85 ± 0.036.

Take YHLHPTFANPNRTFTDP [TAF14]: the protein stability index was 1.94 ± 0.068 (doa10∆), 2.02 ± 0.055 (pdr5∆), 2.21 ± 0.1 (san1∆) and 1.7 ± 0.036 (ubr1∆).

For the sequence DNTARVIFDASIKDTQN [BRN1], the protein stability index is 2.1 ± 0.078 (doa10∆), 2.06 ± 0.064 (pdr5∆), 2.42 ± 0.1 (san1∆) and 2.68 ± 0.048 (ubr1∆).

Regarding DLKNTRMKSITSTSQKI [SNF5], the protein stability index reads like this: (doa10∆) 3.23 ± 0.082; (pdr5∆) 3.14 ± 0.074; (san1∆) 3.17 ± 0.045; (ubr1∆) 3.08 ± 0.05.

NVPWPQNSYADKVTSQA [RPP1]: the protein stability index worked out at 2.04 ± 0.094 (doa10∆), 2.19 ± 0.15 (pdr5∆), 1.83 ± 0.1 (san1∆) and 2.25 ± 0.096 (ubr1∆).

In the case of IDRNSTILYLNVFHGLC [IRR1], the protein stability index reads like this: (doa10∆) 2.41 ± 0.14; (pdr5∆) 1.52 ± 0.084; (san1∆) 2.14 ± 0.25; (ubr1∆) 2.78 ± 0.17.

In the case of LIYVNPFMLQWGIPLIK [FAS1], the protein stability index reads like this: (doa10∆) 1.45 ± 0.082; (pdr5∆) 1.4 ± 0.099; (san1∆) 1.13 ± 0.14; (ubr1∆) 1.65 ± 0.064.

Regarding RKDENQFSYVDSSMTTV [AAR2], the protein stability index was determined as 2.98 ± 0.041 (doa10∆), 3.09 ± 0.045 (pdr5∆), 3 ± 0.033 (san1∆) and 3.06 ± 0.04 (ubr1∆).

As for YENKDNLTAGIIVAGYD [PRE3], the protein stability index was found to be 2.71 ± 0.047 (doa10∆), 2.91 ± 0.05 (pdr5∆), 2.98 ± 0.04 (san1∆) and 2.78 ± 0.036 (ubr1∆).

On to KKDSKPAFSFGISNGSE [YLR335W/NUP2], for which the protein stability index (doa10∆) turned out to be 3.16 ± 0.067, the protein stability index (pdr5∆) amounted to 3.12 ± 0.069, the protein stability index (san1∆) came to 3.1 ± 0.044 and the protein stability index (ubr1∆) is 3.15 ± 0.058.

TLKIHLKKFLQEKMDPN [IRR1]: the protein stability index runs as follows: (doa10∆) 2.86 ± 0.1; (pdr5∆) 3.01 ± 0.08; (san1∆) 3.08 ± 0.084; (ubr1∆) 2.82 ± 0.099.

As for LFGMCESLYEPNLEPED [PUP3], the protein stability index stood at 2.77 ± 0.19 (doa10∆), 3.53 ± 0.2 (pdr5∆), 3.32 ± 0.081 (san1∆) and 3.27 ± 0.1 (ubr1∆).
